Measured values as given in PMC9464592 (Nature, 2022).

Tests used:
Test in all cases: SEC
[1] = target: T1, WDR24 ∆CTD (human, UniProt Q96S15 1-700)
T1 sequence (looked up): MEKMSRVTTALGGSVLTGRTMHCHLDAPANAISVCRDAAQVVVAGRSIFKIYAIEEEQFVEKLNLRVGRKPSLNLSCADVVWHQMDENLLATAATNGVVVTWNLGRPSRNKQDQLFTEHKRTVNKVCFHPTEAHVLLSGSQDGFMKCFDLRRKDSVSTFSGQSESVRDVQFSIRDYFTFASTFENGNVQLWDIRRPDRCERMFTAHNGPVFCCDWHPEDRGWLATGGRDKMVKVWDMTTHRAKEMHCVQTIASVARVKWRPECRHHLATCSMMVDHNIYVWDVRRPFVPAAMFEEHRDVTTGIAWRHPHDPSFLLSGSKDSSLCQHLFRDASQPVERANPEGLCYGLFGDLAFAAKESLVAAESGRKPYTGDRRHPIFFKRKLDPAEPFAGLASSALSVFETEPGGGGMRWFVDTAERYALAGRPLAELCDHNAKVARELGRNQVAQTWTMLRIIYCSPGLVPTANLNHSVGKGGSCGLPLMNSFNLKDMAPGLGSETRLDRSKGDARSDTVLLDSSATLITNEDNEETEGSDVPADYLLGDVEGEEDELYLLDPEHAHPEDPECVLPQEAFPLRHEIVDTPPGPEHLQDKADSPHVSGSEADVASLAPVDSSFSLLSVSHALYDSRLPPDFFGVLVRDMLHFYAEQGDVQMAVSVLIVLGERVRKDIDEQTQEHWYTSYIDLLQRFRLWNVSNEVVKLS

[2] = target: T2, WDR59 ∆CTD (human, UniProt Q6PJI9 1-890)
T2 sequence (looked up): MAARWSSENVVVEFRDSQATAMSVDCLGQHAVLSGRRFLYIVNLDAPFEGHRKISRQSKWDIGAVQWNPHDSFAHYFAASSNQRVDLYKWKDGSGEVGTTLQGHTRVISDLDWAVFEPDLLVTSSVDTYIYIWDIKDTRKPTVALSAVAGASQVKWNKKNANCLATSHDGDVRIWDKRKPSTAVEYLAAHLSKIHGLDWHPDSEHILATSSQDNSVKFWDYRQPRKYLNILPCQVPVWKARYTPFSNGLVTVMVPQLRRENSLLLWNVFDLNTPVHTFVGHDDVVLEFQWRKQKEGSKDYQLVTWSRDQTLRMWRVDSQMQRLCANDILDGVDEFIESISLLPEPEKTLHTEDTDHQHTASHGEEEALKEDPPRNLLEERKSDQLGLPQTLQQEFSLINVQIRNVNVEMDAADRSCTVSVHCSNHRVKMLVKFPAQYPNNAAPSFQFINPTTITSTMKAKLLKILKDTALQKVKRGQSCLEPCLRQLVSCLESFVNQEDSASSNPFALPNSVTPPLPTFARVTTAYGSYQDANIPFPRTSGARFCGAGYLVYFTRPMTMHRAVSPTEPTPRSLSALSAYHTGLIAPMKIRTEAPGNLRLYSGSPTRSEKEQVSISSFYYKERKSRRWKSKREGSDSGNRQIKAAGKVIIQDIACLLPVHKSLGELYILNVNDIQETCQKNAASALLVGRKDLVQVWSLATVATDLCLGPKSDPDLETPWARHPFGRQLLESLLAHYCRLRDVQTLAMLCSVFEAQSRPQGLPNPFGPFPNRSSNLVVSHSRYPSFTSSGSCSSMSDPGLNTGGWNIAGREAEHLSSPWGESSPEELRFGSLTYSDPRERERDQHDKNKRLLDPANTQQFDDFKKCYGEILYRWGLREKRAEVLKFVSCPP

[3] = target: T3, MIOS A560E (human, UniProt Q9NXC5 1-875, A560E)
T3 sequence: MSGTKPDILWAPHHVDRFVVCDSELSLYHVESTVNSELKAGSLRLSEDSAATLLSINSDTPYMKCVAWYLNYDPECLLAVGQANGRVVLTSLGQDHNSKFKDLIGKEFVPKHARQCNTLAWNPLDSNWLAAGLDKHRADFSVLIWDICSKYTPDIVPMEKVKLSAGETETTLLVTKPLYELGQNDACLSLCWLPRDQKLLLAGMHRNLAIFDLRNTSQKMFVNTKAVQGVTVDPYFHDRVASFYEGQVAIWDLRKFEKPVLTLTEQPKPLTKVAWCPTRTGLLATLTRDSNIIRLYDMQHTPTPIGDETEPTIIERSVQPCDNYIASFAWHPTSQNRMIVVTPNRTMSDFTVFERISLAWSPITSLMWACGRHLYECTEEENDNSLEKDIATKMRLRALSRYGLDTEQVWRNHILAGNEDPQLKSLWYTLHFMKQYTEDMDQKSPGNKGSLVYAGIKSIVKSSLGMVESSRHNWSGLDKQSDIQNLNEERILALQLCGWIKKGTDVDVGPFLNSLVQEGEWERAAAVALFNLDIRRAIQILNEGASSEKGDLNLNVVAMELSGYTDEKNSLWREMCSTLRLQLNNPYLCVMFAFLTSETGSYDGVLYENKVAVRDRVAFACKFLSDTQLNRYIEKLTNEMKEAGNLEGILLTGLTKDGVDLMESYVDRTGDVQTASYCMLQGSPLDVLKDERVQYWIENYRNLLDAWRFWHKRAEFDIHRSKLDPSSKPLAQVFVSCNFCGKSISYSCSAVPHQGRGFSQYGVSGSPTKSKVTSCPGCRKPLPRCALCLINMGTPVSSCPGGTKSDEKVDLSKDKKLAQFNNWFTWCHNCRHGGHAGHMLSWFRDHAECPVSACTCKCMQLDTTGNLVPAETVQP

Measured: binding result

B1: tag-free SEC13 (natural protein, human)
chain: MVSVINTVDTSHEDMIHDAQMDYYGTRLATCSSDRSVKIFDVRNGGQILIADLRGHEGPVWQVAWAHPMYGNILASCSYDRKVIIWREENGTWEKSHEHAGHDSSVNSVCWAPHDYGLILACGSSDGAISLLTYTGEGQWEVKKINNAHTIGCNAVSWAPAVVPGSLIDHPSGQKPNYIKRFASGGCDNLIKLWKEEEDGQWKEEQKLEAHSDWVRDVAWAPSIGLPTSTIASCSQDGRVFIWTCDDASSNTWSPKLLHKFNDVVWHVSWSITANILAVSGGDNKVTLWKESVDGQWVCISDVNKGQGSVSASVTEGQQNEQ
binds: [1] | [2] | [3]
